Data as given in patent publication US20240400614A1, “CLEAVABLE PEPTIDES AND METHODS OF USE THEREOF” (Bright Peak Therapeutics AG, priority 2023, published 2024).
Square brackets hold non-standard residues; d marks the D form. Ends that are not written are not given here. Tyr(3-NO2) = N[C@@H](Cc1ccc(O)c([N+](=O)[O-])c1)C(=O)O; 2Abz = Nc1ccccc1C(=O)O

Legend:
Format in all cases: biochemical
MMP-2 = target: T1, MMP-2 (Homo sapiens, UniProt P08253); experiment: FRET peptide cleavage efficiency with MMP-2
T1 construct: purchased SIGMA PF023
T1 sequence (P08253 110-660): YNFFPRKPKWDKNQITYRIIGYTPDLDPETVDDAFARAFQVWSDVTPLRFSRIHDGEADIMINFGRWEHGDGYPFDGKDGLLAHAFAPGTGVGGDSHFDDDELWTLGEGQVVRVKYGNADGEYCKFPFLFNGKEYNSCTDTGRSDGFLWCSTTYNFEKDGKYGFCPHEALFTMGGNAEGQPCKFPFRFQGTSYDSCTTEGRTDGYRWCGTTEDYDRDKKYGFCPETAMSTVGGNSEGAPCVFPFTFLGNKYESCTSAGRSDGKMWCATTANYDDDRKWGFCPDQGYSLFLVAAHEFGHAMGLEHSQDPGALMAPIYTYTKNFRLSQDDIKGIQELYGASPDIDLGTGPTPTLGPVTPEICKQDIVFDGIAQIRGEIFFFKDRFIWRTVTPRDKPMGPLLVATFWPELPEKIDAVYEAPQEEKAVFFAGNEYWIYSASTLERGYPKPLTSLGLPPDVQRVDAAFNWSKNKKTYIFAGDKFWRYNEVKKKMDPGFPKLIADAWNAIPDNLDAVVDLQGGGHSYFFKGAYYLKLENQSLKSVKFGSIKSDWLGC

uPA = uPA (Homo sapiens, UniProt P00749); experiment: FRET peptide cleavage efficiency with uPA; conditions: 200 uM linker, 1 ug/ml protease, 37° C., buffer A pH 8.5
Kallikrein-3 = Kallikrein-3 (Homo sapiens, UniProt P07288); experiment: FRET peptide cleavage efficiency with Kallikrein-3; conditions: peptide 200 uM, Kallikrein-3 2 μg/ml, 37° C., pH 8
MMP-7 = target: T2, MMP-7 (Homo sapiens, UniProt P09237); experiment: FRET peptide cleavage efficiency with MMP-7 (standard pH 7.5; also pH 6.5); conditions: for % cleavage MMP-7 t = 15 min: t = 15 min (Table 9); for % cleavage MMP-7 t = 60 min: t = 60 min (Table 9); for % cleavage MMP-7 t = 120 min: t = 120 min (Table 9)
T2 construct: purchased SIGMA CC1059
T2 sequence (P09237 95-267): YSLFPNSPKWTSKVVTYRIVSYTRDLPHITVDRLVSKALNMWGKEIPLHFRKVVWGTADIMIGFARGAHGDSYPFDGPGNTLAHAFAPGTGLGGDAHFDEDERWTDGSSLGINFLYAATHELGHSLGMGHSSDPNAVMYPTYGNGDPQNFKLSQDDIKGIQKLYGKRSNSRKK

matriptase = target: T3, matriptase (Homo sapiens, UniProt Q9Y5Y6); experiment: FRET peptide cleavage efficiency with matriptase; conditions: 200 uM linker, 1 ug/ml protease, 37° C., buffer B pH 9.0
T3 construct: purchased R&D Systems 3946-SEB
T3 sequence (Q9Y5Y6 615-855 limits assumed): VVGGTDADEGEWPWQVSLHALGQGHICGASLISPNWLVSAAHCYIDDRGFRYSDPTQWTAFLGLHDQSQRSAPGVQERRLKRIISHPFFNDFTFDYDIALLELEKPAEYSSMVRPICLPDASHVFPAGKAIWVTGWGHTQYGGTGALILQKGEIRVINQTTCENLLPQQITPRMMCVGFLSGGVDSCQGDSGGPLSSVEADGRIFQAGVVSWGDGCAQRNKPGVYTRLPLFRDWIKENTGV

MMP-9 = target: T4, MMP-9 (Homo sapiens, UniProt P14780); experiment: FRET peptide cleavage efficiency with MMP-9 (standard pH 7.5; also pH 6.5); conditions: for % cleavage MMP-9 t = 15 min: t = 15 min (Table 9); for % cleavage MMP-9 t = 60 min: t = 60 min (Table 9); for % cleavage MMP-9 t = 120 min: t = 120 min (Table 9)
T4 construct: purchased SIGMA PF024

[1] = t = 15 min, 200 uM linker, 1 ug/ml protease, 37° C., buffer C pH 7.5
[2] = t = 60 min, 200 uM linker, 1 ug/ml protease, 37° C., buffer C pH 7.5
[3] = t = 120 min, 200 uM linker, 1 ug/ml protease, 37° C., buffer C pH 7.5

Chain of Kallikrein-3 (P07288 25-261, species assumed): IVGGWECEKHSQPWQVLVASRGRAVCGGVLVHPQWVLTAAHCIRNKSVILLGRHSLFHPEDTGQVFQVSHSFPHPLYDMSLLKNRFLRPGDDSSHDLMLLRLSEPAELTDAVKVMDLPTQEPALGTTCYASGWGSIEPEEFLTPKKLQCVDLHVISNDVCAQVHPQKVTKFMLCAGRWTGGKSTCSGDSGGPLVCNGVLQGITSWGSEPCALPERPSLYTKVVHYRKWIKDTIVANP
T4 sequence (P14780 94-707): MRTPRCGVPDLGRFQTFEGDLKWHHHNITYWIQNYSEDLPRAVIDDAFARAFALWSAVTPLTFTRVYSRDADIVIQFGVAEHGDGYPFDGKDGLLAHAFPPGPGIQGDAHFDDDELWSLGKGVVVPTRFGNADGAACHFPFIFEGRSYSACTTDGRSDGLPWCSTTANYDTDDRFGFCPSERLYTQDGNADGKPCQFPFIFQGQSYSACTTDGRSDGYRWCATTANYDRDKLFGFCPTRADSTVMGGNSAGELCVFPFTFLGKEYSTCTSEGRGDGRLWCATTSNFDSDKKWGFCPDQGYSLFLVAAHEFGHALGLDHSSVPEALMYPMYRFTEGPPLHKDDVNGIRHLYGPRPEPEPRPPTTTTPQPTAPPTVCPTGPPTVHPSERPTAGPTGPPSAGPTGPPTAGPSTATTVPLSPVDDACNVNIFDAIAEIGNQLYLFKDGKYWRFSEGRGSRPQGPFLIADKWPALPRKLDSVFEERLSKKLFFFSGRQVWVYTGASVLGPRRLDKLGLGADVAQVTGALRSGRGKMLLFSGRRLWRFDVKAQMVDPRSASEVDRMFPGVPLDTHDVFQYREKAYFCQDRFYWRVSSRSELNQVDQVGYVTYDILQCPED

| % cleavage MMP-2 t = 15 min (MMP-2; t = 15 min (Table 9)) [%] | % cleavage MMP-2 t = 15 min (MMP-2; [1]) [%] | % cleavage MMP-2 t = 60 min (MMP-2; t = 60 min (Table 9)) [%] | % cleavage MMP-2 t = 60 min (MMP-2; [2]) [%] | % cleavage MMP-2 t = 120 min (MMP-2; t = 120 min (Table 9)) [%] | % cleavage MMP-2 t = 120 min (MMP-2; [3]) [%] | % cleavage uPA t = 15 min (uPA) [%] | % cleavage uPA t = 60 min (uPA) [%] | % cleavage uPA t = 120 min (uPA) [%] | Kallikrein-3 t = 1 h % cleavage (Kallikrein-3) [%] | Kallikrein-3 t = 3 h % cleavage (Kallikrein-3) [%] | Kallikrein-3 t = 6 h % cleavage (Kallikrein-3) [%] | Kallikrein-3 t = 8 h % cleavage (Kallikrein-3) [%] | % cleavage MMP-7 t = 15 min (MMP-7) [%] | % cleavage MMP-7 t = 60 min (MMP-7) [%] | % cleavage MMP-7 t = 120 min (MMP-7) [%] | % cleavage Matriptase t = 15 min (matriptase) [%] | % cleavage Matriptase t = 60 min (matriptase) [%] | % cleavage Matriptase t = 120 min (matriptase) [%] | % cleavage MMP-9 t = 15 min (MMP-9) [%] | Substance | further results |
| --- | --- | --- | --- | --- | --- | --- | --- | --- | --- | --- | --- | --- | --- | --- | --- | --- | --- | --- | --- | --- | --- |
| 0 | 0 | 0 | 0 | 0 | 0 | 0 | 0 | 0 | 0 | 0 | 0 | 0 | 0 | 0 | 0 | 0 | 0 | 0 | 0 | GSGSGSGS ([2Abz]GSGSGSGS[Tyr(3-NO2)]-NH2) [LNK064] | % cleavage MMP-9 t = 60 min (MMP-9): 0%; % cleavage MMP-9 t = 120 min (MMP-9): 0% |
| 16 | 16 | 60 | 60 | 86 | 86 | 2 | 9 | 19 | 49 | 83 | 94 | 100 | 0 | 0 | 0 | 8 | 33 | 56 | 1 | RSSYRSL ([2Abz]RSSYRSL[Tyr(3-NO2)]-NH2) [LNK075] | % cleavage MMP-9 t = 60 min (MMP-9): 5%; % cleavage MMP-9 t = 120 min (MMP-9): 10% |
| 82 | 82 | 100 | 100 | 100 | 100 | 0 | 0 | 0 | 7 | 20 | 37 | 45 | 2 | 3 | 0 | 9 | 35 | 62 | 23 | SGRHSSKLQPLGYFGKL ([2Abz]SGRHSSKLQPLGYFGKL[Tyr(3-NO2)]-NH2) [LNK063] | % cleavage MMP-9 t = 60 min (MMP-9): 93%; % cleavage MMP-9 t = 120 min (MMP-9): 100% |

Further lines, the substance ahead of its results:

| Substance | % cleavage MMP-2 t = 15 min (MMP-2; t = 15 min (Table 9)) [%] | % cleavage MMP-2 t = 15 min (MMP-2; [1]) [%] | % cleavage MMP-2 t = 60 min (MMP-2; t = 60 min (Table 9)) [%] | % cleavage MMP-2 t = 60 min (MMP-2; [2]) [%] | % cleavage MMP-2 t = 120 min (MMP-2; t = 120 min (Table 9)) [%] | % cleavage MMP-2 t = 120 min (MMP-2; [3]) [%] | % cleavage uPA t = 15 min (uPA) [%] | % cleavage uPA t = 60 min (uPA) [%] | % cleavage uPA t = 120 min (uPA) [%] | Kallikrein-3 t = 1 h % cleavage (Kallikrein-3) [%] | Kallikrein-3 t = 3 h % cleavage (Kallikrein-3) [%] | Kallikrein-3 t = 6 h % cleavage (Kallikrein-3) [%] | Kallikrein-3 t = 8 h % cleavage (Kallikrein-3) [%] | % cleavage MMP-7 t = 15 min (MMP-7) [%] | % cleavage MMP-7 t = 60 min (MMP-7) [%] | % cleavage MMP-7 t = 120 min (MMP-7) [%] | % cleavage Matriptase t = 15 min (matriptase) [%] | % cleavage Matriptase t = 60 min (matriptase) [%] | % cleavage Matriptase t = 120 min (matriptase) [%] | % cleavage MMP-9 t = 15 min (MMP-9) [%] | further results |
| --- | --- | --- | --- | --- | --- | --- | --- | --- | --- | --- | --- | --- | --- | --- | --- | --- | --- | --- | --- | --- | --- |
| RGRRHSSKLQPLGYFGKL ([2Abz]RGRRHSSKLQPLGYFGKL[Tyr(3-NO2)]-NH2) [LNK062] | 71 | 71 | 100 | 100 | 100 | 100 | 0 | 0 | 0 | 28 | 79 | 100 | 100 | 0 | 0 | 0 | 66 | 100 | 100 | 41 | % cleavage MMP-9 t = 60 min (MMP-9): 100%; % cleavage MMP-9 t = 120 min (MMP-9): 100% |
| RGRRHSSKLQ ([2Abz]RGRRHSSKLQ[Tyr(3-NO2)]-NH2) [LNK052] | 1 | 1 | 2 | 2 | 4 | 4 | 0 | 0 | 0 | 8 | 31 | 55 | 67 | 0 | 0 | 0 | 60 | 100 | 100 | 0 | % cleavage MMP-9 t = 60 min (MMP-9): 0%; % cleavage MMP-9 t = 120 min (MMP-9): 0% |
| KSKQHSL ([2Abz]KSKQHSL[Tyr(3-NO2)]-NH2) [LNK077] |  | 3 |  | 4 |  | 6 | 0 | 0 | 0 | 9 | 30 | 56 | 69 |  |  |  | 0 | 0 | 0 |  |  |
